T1: VEGFR-3-Ig (human, UniProt P35916 25-775)
T1 construct: extracellular domain; also called soluble Ig-fusion protein containing the extracellular domain of human VEGFR-3; not shown: Fc portion of human IgG1
T1 sequence (looked up): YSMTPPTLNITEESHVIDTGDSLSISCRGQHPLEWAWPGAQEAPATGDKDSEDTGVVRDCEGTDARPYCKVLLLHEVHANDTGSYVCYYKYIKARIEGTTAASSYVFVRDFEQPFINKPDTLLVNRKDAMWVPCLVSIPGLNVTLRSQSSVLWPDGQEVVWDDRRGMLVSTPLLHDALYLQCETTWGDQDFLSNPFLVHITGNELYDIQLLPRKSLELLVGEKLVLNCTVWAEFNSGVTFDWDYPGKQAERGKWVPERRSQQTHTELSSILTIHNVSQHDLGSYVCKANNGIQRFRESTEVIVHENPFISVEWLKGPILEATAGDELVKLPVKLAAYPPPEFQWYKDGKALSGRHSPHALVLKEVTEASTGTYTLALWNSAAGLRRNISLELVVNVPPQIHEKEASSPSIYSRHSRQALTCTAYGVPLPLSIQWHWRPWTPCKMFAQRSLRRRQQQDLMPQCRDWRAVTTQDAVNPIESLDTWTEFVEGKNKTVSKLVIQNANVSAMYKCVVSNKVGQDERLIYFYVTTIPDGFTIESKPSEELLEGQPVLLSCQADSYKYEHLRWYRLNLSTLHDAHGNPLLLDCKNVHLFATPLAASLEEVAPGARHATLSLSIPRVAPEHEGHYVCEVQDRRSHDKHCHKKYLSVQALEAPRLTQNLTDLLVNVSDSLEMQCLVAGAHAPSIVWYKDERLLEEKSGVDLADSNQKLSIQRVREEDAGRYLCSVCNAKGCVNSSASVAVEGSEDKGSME

B1: mouse VEGF164 (ligand, UniProt Q00731-2 27-190, looked up)
chain: APTTEGEQKSHEVIKFMDVYQRSYCRPIETLVDIFQEYPDEIEYIFKPSCVPLMRCAGCCNDEALECVPTSESNITMQIMRIKPHQSQHIGEMSFLQHSRCECRPKKDRTKPENHCEPCSERRKHLFVQDPQTCKCSCKNTDSRCKARQLELNERTCRCDKPRR
B2: FLAG-tagged NZ10 (ligand)
chain: DSTKTWSEVFESSKCKPRPTVVPVGEAHPELTSQRFNPQCVTVMRCGGCCNDESLECVPTEEANVTMQLMGASVSGGNGMQHLIFVEHKKCDCKPRLTTTPPTTTRPPRRRR
notes: Disulfide-linked homodimer, secreted from 293EBNA-1 cells and purified on M2-gel; also called ORFV10-VEGF; not shown: FLAG octapeptide at the C-terminus
B3: FLAG-tagged ORFV2-VEGF (ligand)
chain: DSNTKGWSEVLKGSECKPRPIVVPVSETHPELTSQRFNPPCVTLMRCGGCCNDESLECVPTEEVNVTMELLGASGSGSNGMQRLSFVEHKKCDCRPRFTTTPPTTTRPPRRRR
notes: Disulfide-linked homodimer, glycosylated; Expressed in COS or 293EBNA cells; also called NZ2; ORVF2-VEGF; not shown: FLAG octapeptide at the C-terminus

Legend:
VEGFR-1-Ig [1] = biological target: T2, VEGFR-1-Ig (human, UniProt P17948 27-758); assay: precipitation of 35S-labeled conditioned medium with receptor-Ig on protein A-Sepharose, SDS-PAGE, phosphorimager
T2 construct: extracellular domain; also called soluble Ig-fusion protein containing the extracellular domain of human VEGFR-1; not shown: Fc portion of human IgG1
T2 sequence (P17948 27-758): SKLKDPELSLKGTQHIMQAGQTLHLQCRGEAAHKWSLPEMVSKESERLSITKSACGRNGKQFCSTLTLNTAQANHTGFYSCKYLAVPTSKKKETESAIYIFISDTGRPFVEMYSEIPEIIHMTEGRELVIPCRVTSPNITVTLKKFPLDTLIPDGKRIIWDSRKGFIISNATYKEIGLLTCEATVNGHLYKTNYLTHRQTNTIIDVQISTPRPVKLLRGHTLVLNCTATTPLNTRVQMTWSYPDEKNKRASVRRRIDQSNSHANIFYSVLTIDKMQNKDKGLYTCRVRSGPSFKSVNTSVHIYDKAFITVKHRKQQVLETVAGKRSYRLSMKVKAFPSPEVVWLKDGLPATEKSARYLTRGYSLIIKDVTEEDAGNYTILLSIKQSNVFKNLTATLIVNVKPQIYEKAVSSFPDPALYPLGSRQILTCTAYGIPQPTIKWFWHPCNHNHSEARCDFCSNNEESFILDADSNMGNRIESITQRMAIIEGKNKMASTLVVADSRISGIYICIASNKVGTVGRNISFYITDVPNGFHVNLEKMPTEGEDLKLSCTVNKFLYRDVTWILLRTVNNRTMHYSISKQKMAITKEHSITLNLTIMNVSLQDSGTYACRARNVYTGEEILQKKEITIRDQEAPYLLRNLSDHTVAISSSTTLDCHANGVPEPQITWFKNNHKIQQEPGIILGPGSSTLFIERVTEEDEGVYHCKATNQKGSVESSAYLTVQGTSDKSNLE
Procedure: (§1) To further assess the interactions between ORFV2-VEGF and the VEGFRs, ORFV2-VEGF was tested for its capacity to bind to soluble Ig-fusion proteins containing the extracellular domains of human VEGFR-1, VEGFR-2 and VEGFR-3. The fusion proteins, designated VEGFR-1-Ig, VEGFR-2-Ig and VEGFR-3-Ig, were transiently expressed in 293 EBNA cells. All Ig fusion proteins were human VEGFRs. Cells were incubated for 24 hours after transfection, washed with DMEM containing 0.2% bovine serum albumin and starved for 24 hours. The fusion proteins were then precipitated from the clarified conditioned medium using protein A-Sepharose beads. The beads were combined with 100 µl of 10x binding buffer (5% bovine serum albumin, 0.2% Tween 20 and 10 µg/ml heparin) and 900 µl of conditioned medium from 293 cells that had been transfected with expression plasmids encoding VEGF, VEGF-DΔNΔC,ORFV2-VEGF or control vector, then metabolically labeled with ^35S-cysteine/methionine for 4 to 16 hours. After 2.5 hours, at room temperature, the Sepharose beads were washed 3 times with binding buffer at 4° C., once with phosphate buffered saline and boiled in SDS-PAGE buffer. Labeled proteins that were bound to the Ig-fusion proteins were analyzed by SDS-PAGE under reducing conditions. Radiolabeled proteins were detected using a phosphorimager analyzer.

VEGFR-2-Ig = biological target: T3, VEGFR-2-Ig (human, UniProt P35968 20-764); assay: as above
T3 construct: extracellular domain; also called soluble Ig-fusion protein containing the extracellular domain of human VEGFR-2; not shown: Fc portion of human IgG1
T3 sequence (P35968 20-764): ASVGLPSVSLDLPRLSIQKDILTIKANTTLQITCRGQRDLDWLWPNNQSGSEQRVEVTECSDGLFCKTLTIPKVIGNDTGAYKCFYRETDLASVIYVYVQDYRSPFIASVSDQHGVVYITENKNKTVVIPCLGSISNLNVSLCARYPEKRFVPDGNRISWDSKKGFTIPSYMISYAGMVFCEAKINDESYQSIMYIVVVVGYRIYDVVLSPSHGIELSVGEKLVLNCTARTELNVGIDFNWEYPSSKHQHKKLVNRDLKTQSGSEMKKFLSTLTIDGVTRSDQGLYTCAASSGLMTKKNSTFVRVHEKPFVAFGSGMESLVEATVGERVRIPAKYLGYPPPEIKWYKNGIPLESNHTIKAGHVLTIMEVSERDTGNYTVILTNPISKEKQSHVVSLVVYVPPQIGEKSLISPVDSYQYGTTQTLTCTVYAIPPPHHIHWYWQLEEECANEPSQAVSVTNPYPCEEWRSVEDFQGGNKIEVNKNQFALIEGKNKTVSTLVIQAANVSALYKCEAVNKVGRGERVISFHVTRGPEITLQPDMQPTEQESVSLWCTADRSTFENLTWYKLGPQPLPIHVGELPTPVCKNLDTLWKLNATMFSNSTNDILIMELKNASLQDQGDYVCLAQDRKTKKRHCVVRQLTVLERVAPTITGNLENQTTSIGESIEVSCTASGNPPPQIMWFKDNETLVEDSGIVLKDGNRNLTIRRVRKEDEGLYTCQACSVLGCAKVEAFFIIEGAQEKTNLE
Procedure: as §1

VEGFR-3-Ig = biological target: T1, VEGFR-3-Ig; assay: as above
Procedure: as §1

VEGFR-1-Ig [2] = biological target: T2, VEGFR-1-Ig; assay: not described; told in Example 3 with the receptor-Ig precipitations
[3] = biological target: chimeric receptor consisting of the extracellular domain of mouse VEGFR-2 and the transmembrane and … (mouse, UniProt P35918 20-762; P14753 250-507, limits assumed); assay: cell-based or functional assay
Sequence of chimeric receptor consisting of the extracellular domain of mouse VEGFR-2 and the transmembrane and … (P35918 other isoform, or with tags, fused parts or gaps mutant limits assumed): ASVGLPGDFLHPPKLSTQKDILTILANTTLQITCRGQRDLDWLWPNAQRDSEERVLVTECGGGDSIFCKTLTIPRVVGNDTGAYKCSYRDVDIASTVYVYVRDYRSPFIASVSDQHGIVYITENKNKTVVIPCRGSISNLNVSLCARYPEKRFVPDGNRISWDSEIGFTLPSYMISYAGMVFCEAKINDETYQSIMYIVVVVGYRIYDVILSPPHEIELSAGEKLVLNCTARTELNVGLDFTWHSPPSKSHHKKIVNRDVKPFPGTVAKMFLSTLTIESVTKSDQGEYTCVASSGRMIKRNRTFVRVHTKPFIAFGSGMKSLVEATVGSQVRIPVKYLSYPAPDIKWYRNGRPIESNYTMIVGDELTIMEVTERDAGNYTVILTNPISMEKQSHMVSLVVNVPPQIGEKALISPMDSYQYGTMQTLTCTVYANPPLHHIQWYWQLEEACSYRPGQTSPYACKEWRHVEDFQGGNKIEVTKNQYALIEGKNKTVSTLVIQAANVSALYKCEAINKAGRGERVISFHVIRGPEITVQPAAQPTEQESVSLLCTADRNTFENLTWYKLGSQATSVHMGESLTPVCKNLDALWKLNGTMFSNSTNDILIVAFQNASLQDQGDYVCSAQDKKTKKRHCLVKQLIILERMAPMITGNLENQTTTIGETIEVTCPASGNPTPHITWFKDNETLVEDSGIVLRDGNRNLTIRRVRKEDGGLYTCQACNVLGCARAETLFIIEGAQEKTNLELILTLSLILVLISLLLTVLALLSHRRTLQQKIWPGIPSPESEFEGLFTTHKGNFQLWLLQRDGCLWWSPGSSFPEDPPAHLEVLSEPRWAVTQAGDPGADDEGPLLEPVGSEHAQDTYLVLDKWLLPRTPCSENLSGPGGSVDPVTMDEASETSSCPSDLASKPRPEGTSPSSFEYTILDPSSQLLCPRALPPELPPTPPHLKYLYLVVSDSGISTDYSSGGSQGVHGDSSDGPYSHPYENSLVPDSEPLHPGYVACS

Binder	binding result (VEGFR-1-Ig [1])	binding result (VEGFR-2-Ig)	binding result (VEGFR-3-Ig)	binding result (VEGFR-1-Ig [2])	potency in the Ba/F3 VEGFR-2-EpoR bioassay compared to mouse VEGF [3]
B1	binds	binds	no binding		
B2				no binding	
B3	no binding	binds	no binding		~4 fold less potent than mouse VEGF

Source: US6541008 (UNIVERSITY OF OTAGO, dated 2003)
